The assay concerns the target Rap1 preloaded with mGppNHp (GDI assay) (Dictyostelium) (UniProt P18613). Briefly: GDI (guanine nucleotide dissociation inhibition) assay, fluorescence; mGppNHp labelled G-protein with indicated amounts of RA-TalB, 200 fold excess of GppNHp, 25 °C; 50 mM Tris-HCl pH 7.5, 5 mM MgCl2, 50 mM NaCl, 5 mM DTE; Kd from dependence of kobs on RA-TalB concentration.
Chain of UniProt P18613 (P18613 whole entry): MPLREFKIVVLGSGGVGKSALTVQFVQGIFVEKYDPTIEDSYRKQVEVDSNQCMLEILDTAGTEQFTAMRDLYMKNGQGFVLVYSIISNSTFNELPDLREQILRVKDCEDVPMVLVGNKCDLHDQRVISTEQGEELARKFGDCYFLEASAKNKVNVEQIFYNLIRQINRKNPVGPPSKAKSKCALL

B1: Dictyostelium RA-TalB domain (residues 1-122) (domain or fragment)
chain: MSLTLKIQIVRDKQVKAMKFSPTQTVAEVCAQVREKINETSGDDHGLFQPGIDAKRPSRWLKMDKTLQFYDLKINDELDYKKKHRPLKVRLMDETVKTMLVDDSLTAGEILEIIGKRIGIKN
B1: the equilibrium dissociation constant (Kd) stood at 19.9 µM.

The values are drawn from article PMC4861126.
